Where a chain is given by its changes, count along the chain named. In names and notes the source's numbering stands. Blank lines part the entries; values can stand above or below the binder they belong to.
Experiments:
[1] = biological target: FAM118B-L32R, full length, tagged with mEGFP or with mCherry, Q9BPY3; experiment: FCCS (fluorescence cross-correlation spectroscopy) in living U2OS cells; conditions: chain shown with the change; mEGFP-F122R (green label) coexpressed with mCherry-L32R (red label); n = 15 cells per condition; read off a plot
[2] = biological target: FAM118B-F122R, full length, tagged with mEGFP or with mCherry, Q9BPY3; experiment: as above; conditions: chain shown with the change, n = 15 cells per condition, read off a plot

response [1]: 88%
B1: mEGFP–FAM118B WT (full-length human FAM118B fused at its N terminus to mEGFP), Q9BPY3 binder:F122R; target:L32R (protein)
chain: MASTGSQASDIDEIFGFFNDGEPPTKKPRKLLPSLKTKKPRELVLVIGTGISAAVAPQVPALKSWKGLIQALLDAAIDFDLLEDEESKKFQKCLHEDKNLVHVAHDLIQKLSPRTSNVRSTRFKDCLYEVFDDLESKMEDSGKQLLQSVLHLMENGALVLTTNFDNLLELYAADQGKQLESLDLTDEKKVLEWAQEKRKLSVLHIHGVYTNPSGIVLHPAGYQNVLRNTEVMREIQKLYENKSFLFLGCGWTVDDTTFQALFLEAVKHKSDLEHFMLVRRGDVDEFKKLRENMLDKGIKVISYGDDYADLPEYFKRLTCEISTRGTSAGMVREGQLNGSSAAHSEIRGCST

response ([2]; mEGFP-F122R (green label) coexpressed with mCherry-F122R (red label)): 6%
B2: mEGFP–FAM118B WT (full-length human FAM118B fused at its N terminus to mEGFP), Q9BPY3 binder:F122R; target:F122R (protein)
chain: B1 chain

response ([2]; mEGFP-L32R (green label) coexpressed with mCherry-F122R (red label)): 90%
B3: mEGFP–FAM118B WT (full-length human FAM118B fused at its N terminus to mEGFP), Q9BPY3 binder:L32R; target:F122R (protein)
chain: B1 chain with L32R, R122F

Reference: publication PMC12700824
